Patent publication US20110195849A1 (DUKE UNIVERSITY, published 2011)

Assays:
[1] = target: T1, MutSβ (MSH2-MSH3) (human, UniProt P43246 2-934; P20585 1-1137); assay: SPRS, MutLα-MutSβ-DNA ternary complex
T1 construct: mature;range 1-1137; Recombinant heterodimer from baculovirus-infected Sf9 cells; 232 kDa; also called wild type MutSβ; MSH2-MSH3 heterodimer

[2] = target: T1, MutSβ (MSH2-MSH3); assay: SPRS, MutLα varied with 0.10 µM MutSβ on heteroduplex DNA, 1 mM ATP
Excerpt: MutSβ PIP box mutants are defective in MutLα interaction—Interaction between MutS and MutL homologs has been documented in several systems (3, 4), but the nature of the human MutLα-MutSβ complex has not been addressed. We have therefore used SPRS to examine the capacity of MutSβ and its PIP box mutants to support formation of a MutLα-MutSβ-DNA ternary complex. With reference to FIG. 2A, ATP-dependent assembly of the MutLα-MutSβ-DNA ternary complex was scored by SPRS using a 200 bp -TG- I/D heteroduplex (solid lines) or homoduplex (dashed lines) DNA. […] Similar analyses were performed with MutSβΔ28 (middle panel) and MutSβ-F27A-F28A. […] This mass increase was not observed in the absence of ATP (not shown), and we were unable to detect DNA binding by MutLα alone (not shown). The latter results are consistent with previous findings that assembly of ternary complexes involving MutL and MutS homologs is ATP-dependent and that DNA binding by MutL homologs is limited at physiological ionic strength (17, 25, 35-38). The lifetime of the ternary complex is also short, with 80% dissociating with a t_{1/2} of 7s. […] Complex formation on homoduplex DNA (open symbols) was not saturable.

T1 sequence (P43246 2-934 limits assumed, chain 1 of 2): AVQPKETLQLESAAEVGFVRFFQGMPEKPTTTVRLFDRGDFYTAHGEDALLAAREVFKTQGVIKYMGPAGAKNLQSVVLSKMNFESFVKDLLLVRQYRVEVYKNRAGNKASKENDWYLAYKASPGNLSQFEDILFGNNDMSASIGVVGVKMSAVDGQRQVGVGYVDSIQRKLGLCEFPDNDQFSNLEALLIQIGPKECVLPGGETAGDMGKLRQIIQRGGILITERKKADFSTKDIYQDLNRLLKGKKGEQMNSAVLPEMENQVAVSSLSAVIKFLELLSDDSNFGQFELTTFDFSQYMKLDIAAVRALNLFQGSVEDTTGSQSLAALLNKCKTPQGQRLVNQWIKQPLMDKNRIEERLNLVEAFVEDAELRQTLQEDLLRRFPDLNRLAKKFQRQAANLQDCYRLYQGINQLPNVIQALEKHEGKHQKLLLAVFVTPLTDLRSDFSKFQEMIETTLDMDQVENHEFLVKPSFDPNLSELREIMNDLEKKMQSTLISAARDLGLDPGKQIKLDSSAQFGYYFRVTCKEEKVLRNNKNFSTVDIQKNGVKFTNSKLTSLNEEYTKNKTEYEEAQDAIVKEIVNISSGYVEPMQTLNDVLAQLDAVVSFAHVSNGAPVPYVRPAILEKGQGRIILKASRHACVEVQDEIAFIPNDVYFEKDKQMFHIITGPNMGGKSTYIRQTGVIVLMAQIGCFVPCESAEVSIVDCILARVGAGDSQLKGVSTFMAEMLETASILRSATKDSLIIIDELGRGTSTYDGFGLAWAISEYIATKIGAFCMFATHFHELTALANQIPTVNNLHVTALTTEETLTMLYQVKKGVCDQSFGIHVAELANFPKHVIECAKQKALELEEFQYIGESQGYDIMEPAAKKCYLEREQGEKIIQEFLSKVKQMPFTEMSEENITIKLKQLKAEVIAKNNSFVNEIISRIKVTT
T1 sequence (P20585 whole entry, chain 2 of 2): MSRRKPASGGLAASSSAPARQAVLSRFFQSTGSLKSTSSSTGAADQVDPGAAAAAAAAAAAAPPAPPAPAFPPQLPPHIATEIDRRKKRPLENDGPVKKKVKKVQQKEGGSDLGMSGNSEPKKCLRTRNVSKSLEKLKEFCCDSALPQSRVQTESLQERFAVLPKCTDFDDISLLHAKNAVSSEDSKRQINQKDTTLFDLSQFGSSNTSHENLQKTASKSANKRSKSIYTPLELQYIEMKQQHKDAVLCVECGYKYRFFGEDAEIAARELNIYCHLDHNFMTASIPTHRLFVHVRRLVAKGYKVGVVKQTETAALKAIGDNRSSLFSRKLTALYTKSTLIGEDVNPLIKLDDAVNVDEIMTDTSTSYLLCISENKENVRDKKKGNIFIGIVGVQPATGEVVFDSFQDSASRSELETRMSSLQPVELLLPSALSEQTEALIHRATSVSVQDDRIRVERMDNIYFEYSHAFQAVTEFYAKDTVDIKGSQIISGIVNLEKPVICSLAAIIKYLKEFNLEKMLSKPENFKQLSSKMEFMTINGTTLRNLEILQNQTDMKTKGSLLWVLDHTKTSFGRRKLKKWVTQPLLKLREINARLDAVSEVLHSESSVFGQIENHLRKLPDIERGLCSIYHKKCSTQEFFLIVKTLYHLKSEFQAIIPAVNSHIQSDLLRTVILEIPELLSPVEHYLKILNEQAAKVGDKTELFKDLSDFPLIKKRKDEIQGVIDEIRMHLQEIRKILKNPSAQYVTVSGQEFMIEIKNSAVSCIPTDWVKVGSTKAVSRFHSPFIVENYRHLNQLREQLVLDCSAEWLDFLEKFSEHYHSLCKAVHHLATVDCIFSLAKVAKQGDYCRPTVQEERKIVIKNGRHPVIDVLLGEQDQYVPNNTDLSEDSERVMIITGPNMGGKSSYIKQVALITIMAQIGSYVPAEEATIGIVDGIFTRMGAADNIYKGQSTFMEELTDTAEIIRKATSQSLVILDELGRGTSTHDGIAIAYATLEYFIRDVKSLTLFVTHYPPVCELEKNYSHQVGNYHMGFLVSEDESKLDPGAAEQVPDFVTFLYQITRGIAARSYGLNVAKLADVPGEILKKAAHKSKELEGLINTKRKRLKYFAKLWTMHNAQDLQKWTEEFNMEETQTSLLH

B1: MutLα (MLH1-PMS2) (enzyme, human)
chain 1: MSFVAGVIRRLDETVVNRIAAGEVIQRPANAIKEMIENCLDAKSTSIQVIVKEGGLKLIQIQDNGTGIRKEDLDIVCERFTTSKLQSFEDLASISTYGFRGEALASISHVAHVTITTKTADGKCAYRASYSDGKLKAPPKPCAGNQGTQITVEDLFYNIATRRKALKNPSEEYGKILEVVGRYSVHNAGISFSVKKQGETVADVRTLPNASTVDNIRSIFGNAVSRELIEIGCEDKTLAFKMNGYISNANYSVKKCIFLLFINHRLVESTSLRKAIETVYAAYLPKNTHPFLYLSLEISPQNVDVNVHPTKHEVHFLHEESILERVQQHIESKLLGSNSSRMYFTQTLLPGLAGPSGEMVKSTTSLTSSSTSGSSDKVYAHQMVRTDSREQKLDAFLQPLSKPLSSQPQAIVTEDKTDISSGRARQQDEEMLELPAPAEVAAKNQSLEGDTTKGTSEMSEKRGPTSSNPRKRHREDSDVEMVEDDSRKEMTAACTPRRRIINLTSVLSLQEEINEQGHEVLREMLHNHSFVGCVNPQWALAQHQTKLYLLNTTKLSEELFYQILIYDFANFGVLRLSEPAPLFDLAMLALDSPESGWTEEDGPKEGLAEYIVEFLKKKAEMLADYFSLEIDEEGNLIGLPLLIDNYVPPLEGLPIFILRLATEVNWDEEKECFESLSKECAMFYSIRKQYISEESTLSGQQSEVPGSIPNSWKWTVEHIVYKALRSHILPPKHFTEDGNILQLANLPDLYKVFERC
chain 2: MERAESSSTEPAKAIKPIDRKSVHQICSGQVVLSLSTAVKELVENSLDAGATNIDLKLKDYGVDLIEVSDNGCGVEEENFEGLTLKHHTSKIQEFADLTQVETFGFRGEALSSLCALSDVTISTCHASAKVGTRLMFDHNGKIIQKTPYPRPRGTTVSVQQLFSTLPVRHKEFQRNIKKEYAKMVQVLHAYCIISAGIRVSCTNQLGQGKRQPVVCTGGSPSIKENIGSVFGQKQLQSLIPFVQLPPSDSVCEEYGLSCSDALHNLFYISGFISQCTHGVGRSSTDRQFFFINRRPCDPAKVCRLVNEVYHMYNRHQYPFVVLNISVDSECVDINVTPDKRQILLQEEKLLLAVLKTSLIGMFDSDVNKLNVSQQPLLDVEGNLIKMHAADLEKPMVEKQDQSPSLRTGEEKKDVSISRLREAFSLRHTTENKPHSPKTPEPRRSPLGQKRGMLSSSTSGAISDKGVLRPQKEAVSSSHGPSDPTDRAEVEKDSGHGSTSVDSEGFSIPDTGSHCSSEYAASSPGDRGSQEHVDSQEKAPKTDDSFSDVDCHSNQEDTGCKFRVLPQPTNLATPNTKRFKKEEILSSSDICQKLVNTQDMSASQVDVAVKINKKVVPLDFSMSSLAKRIKQLHHEAQQSEGEQNYRKFRAKICPGENQAAEDELRKEISKTMFAEMEIIGQFNLGFIITKLNEDIFIVDQHATDEKYNFEMLQQHTVLQGQRLIAPQTLNLTAVNEAVLIENLEIFRKNGFDFVIDENAPVTERAKLISLPTSKNWTFGPQDVDELIFMLSDSPGVMCRPSRVKQMFASRACRKSVMIGTALNTSEMKKLITHMGEMDHPWNCPHGRPTMRHIANLGVISQN
notes: Purified as in Iyer et al. (21)
t1/2 of dissociation of the ternary complex [1]: 7 s | Kd [2]: 400 nM
